PMC7311433, “Two novel fish paralogs provide insights into the Rid family of imine deaminases active in pre-empting enamine/imine metabolic damage” (Scientific Reports, 2020)
Each block holds one molecule with its values, some of them ahead of it.

Legend:
[1] = molecular target: Salmo salar RidA-1 (Salmo salar); test: native MS; ESI mass spectra of 0.5 mg/mL protein in 10 mM ammonium formate; SsRidA-2 also after ultrafiltration on 30 kDa-cutoff membranes (retentate)
[2] = molecular target: Salmo salar RidA-1 (Salmo salar); test: SEC-MALS; 200 uL of 1 mg/mL protein on Superdex 75 10/300 GL in physiological saline (0.9% w/v NaCl), 0.5 mL/min, mobile phase pH 5.8; MALS and DLS detection
[3] = molecular target: Salmo salar RidA-1 (Salmo salar); test: crystal structure; sitting drop at 20 °C, protein 7.5 mg/mL in 154 mM NaCl; SsRidA-1 from 0.2 M NaCl, 0.1 M sodium acetate pH 5.0, 20% PEG 6000; SsRidA-2 from 0.1 M ammonium sulfate, 0.1 M sodium acetate, 25% PEG 4000; data at 100 K
[4] = molecular target: Salmo salar RidA-2 (Salmo salar); test: native MS; ESI mass spectra of 0.5 mg/mL protein in 10 mM ammonium formate; SsRidA-2 also after ultrafiltration on 30 kDa-cutoff membranes (retentate)
[5] = molecular target: Salmo salar RidA-2 (Salmo salar); test: SEC-MALS; 200 uL of 1 mg/mL protein on Superdex 75 10/300 GL in physiological saline (0.9% w/v NaCl), 0.5 mL/min, mobile phase pH 5.8; MALS and DLS detection
[6] = molecular target: Salmo salar RidA-2 (Salmo salar); test: crystal structure; sitting drop at 20 °C, protein 7.5 mg/mL in 154 mM NaCl; SsRidA-1 from 0.2 M NaCl, 0.1 M sodium acetate pH 5.0, 20% PEG 6000; SsRidA-2 from 0.1 M ammonium sulfate, 0.1 M sodium acetate, 25% PEG 4000; data at 100 K
[7] = molecular target: the molecule itself; test: SEC-MALS; 200 uL of 1 mg/mL protein on Superdex 75 10/300 GL in physiological saline (0.9% w/v NaCl), 0.5 mL/min, mobile phase pH 5.8; MALS and DLS detection

stoichiometry N [1]: 3
stoichiometry N [2]: 3
stoichiometry N [3]: 3
Molecule: Salmo salar RidA-1 (enzyme)

stoichiometry N [4]: 3
stoichiometry N [5]: 3
stoichiometry N [6]: 3
Molecule: Salmo salar RidA-2 (enzyme)

B1: goat RidA (UK114) (enzyme, goat (Capra hircus))
chain: SSLVRRIISTAKAPAAIGPYSQAVLVDRTIYISGQLGMDPASGQLVPGGVVEEAKQALTNIGEILKAAGCDFTNVVKATVLLADINDFSAVNDVYKQYFQSSFPARAAYQVAALPKGGRVEIEAIAVQGPLTTASL
notes: also called ChRidA; goat UK114
stoichiometry N [7]: 3
